Publication PMC9941103
“And” between values parts separate entries of the source, which are not always exact repeats. Equal entries are not always repeated.

Experiments:
[1] = molecular target: SNARE:Complexin-1 complex (UniProt P60881); test: native MS; equimolar Complexin-1 added to the pre-assembled SNARE complexes
[2] = molecular target: fully assembled ternary SNARE complex (SNAP25:Syntaxin-1A:Synaptobrevin-2, 3Q:1R) (UniProt P60881); test: native MS; Synaptobrevin-2, SNAP25 and Syntaxin-1A mixed 1:1:1, incubated overnight
[3] = molecular target: fully assembled ternary SNARE complex (SNAP25:Syntaxin-1A:Synaptobrevin-2, 3Q:1R) (UniProt P60881); test: native MS; equimolar Syntaxin-1A added to the pre-assembled 2:1 SNAP25:Synaptobrevin-2 complex
[4] = molecular target: fully assembled ternary SNARE complex (SNAP25:Syntaxin-1A:Synaptobrevin-2, 3Q:1R) (UniProt P60881); test: native MS; 1.2 molar excess of Synaptobrevin-2 added to pre-assembled binary SNAP25:Syntaxin-1A complexes (1:2 mix), analysed directly
[5] = molecular target: pre-assembled binary SNAP25:Syntaxin-1A complex (1:2, 4Q:0R) (UniProt P60881); test: native MS; SNAP25 and Syntaxin-1A mixed 1:2; 200 mM ammonium acetate

Q: “SNARE:Complexin-1 complex (from UniProt P60881 1-206; P32851 1-262; P63045 1-96; P63041 1-134)” was tested. Which stoichiometry N [1] did it give?
A: The stoichiometry N was 2.

Q: “fully assembled ternary SNARE complex (SNAP25:Syntaxin-1A:Synaptobrevin-2, 3Q:1R) (from UniProt P60881 1-206; P32851 1-262; P63045 1-96)” was tested. Which stoichiometry N [2] did it give?
A: Its stoichiometry N is 2 and 3.

Q: And the stoichiometry N [3]?
A: The stoichiometry N was 2 and 3 and 4.

Q: What about the stoichiometry N [4] of the same substance?
A: The stoichiometry N was 2 and 3.

Q: How did the stoichiometry N [5] turn out when “pre-assembled binary SNAP25:Syntaxin-1A complex (1:2, 4Q:0R) (from UniProt P60881 1-206; P32851 1-262)” was run?
A: The stoichiometry N was 2.
